Source: patent US20110166032A1, “Design and Use of Sortilin Specific Molecular Imaging Ligands” (H. LUNDBECK A/S, priority 2008, published 2011)
No end group written: not given here.

T1: immobilized sSortilin (Homo sapiens, UniProt Q99523)
T1 construct: His6 (C); made in house; host or cells: CHO-K1
T1 sequence (Q99523 78-755): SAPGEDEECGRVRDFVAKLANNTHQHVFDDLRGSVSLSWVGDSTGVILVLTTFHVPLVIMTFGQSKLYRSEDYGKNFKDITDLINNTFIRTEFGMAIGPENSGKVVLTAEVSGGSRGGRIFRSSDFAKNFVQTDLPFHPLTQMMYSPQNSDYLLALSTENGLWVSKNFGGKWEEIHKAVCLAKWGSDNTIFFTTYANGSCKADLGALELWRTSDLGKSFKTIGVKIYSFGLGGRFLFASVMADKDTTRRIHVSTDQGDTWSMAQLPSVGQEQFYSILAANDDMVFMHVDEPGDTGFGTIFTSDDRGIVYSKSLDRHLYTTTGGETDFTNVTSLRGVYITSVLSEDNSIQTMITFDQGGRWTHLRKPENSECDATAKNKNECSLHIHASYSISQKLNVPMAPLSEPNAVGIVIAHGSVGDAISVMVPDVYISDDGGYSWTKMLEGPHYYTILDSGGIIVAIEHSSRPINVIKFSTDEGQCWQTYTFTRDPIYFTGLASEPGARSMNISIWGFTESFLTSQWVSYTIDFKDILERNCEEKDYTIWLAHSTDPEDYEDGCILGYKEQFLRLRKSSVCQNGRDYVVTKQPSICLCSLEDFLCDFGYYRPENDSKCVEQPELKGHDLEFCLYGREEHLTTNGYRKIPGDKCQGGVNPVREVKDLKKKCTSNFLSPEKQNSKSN

T2: sSortilin S316E mutant (Homo sapiens, UniProt Q99523, S316E)
T2 construct: His6 (C); made in house; host or cells: CHO cells
T2 sequence (Q99523 78-755 S316E): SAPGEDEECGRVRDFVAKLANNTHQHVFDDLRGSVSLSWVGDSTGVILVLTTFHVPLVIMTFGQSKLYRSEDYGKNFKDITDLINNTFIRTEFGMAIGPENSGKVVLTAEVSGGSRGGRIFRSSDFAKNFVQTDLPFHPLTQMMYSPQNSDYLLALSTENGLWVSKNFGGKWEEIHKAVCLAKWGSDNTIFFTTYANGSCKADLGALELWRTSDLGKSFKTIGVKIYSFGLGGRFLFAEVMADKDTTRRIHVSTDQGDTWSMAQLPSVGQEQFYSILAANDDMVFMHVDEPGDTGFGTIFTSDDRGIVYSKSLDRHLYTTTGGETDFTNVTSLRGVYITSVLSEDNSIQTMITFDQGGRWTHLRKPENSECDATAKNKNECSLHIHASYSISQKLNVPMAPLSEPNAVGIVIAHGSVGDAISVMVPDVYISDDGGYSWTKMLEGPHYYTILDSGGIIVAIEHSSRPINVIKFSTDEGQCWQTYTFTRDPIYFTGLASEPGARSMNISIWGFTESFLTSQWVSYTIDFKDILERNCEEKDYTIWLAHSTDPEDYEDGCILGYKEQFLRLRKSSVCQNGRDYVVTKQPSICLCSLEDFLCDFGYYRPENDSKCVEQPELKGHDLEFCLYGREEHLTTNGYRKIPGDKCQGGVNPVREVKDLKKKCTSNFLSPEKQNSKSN

T3: Soluble Sortilin (sSortilin), luminal domain of human Sortilin fused C-terminally to His6 (human, UniProt Q99523 78-755)
T3 construct: Expressed in CHO-K1 cells; 1; also called wtSortilin; wt sSortilin
T3 sequence: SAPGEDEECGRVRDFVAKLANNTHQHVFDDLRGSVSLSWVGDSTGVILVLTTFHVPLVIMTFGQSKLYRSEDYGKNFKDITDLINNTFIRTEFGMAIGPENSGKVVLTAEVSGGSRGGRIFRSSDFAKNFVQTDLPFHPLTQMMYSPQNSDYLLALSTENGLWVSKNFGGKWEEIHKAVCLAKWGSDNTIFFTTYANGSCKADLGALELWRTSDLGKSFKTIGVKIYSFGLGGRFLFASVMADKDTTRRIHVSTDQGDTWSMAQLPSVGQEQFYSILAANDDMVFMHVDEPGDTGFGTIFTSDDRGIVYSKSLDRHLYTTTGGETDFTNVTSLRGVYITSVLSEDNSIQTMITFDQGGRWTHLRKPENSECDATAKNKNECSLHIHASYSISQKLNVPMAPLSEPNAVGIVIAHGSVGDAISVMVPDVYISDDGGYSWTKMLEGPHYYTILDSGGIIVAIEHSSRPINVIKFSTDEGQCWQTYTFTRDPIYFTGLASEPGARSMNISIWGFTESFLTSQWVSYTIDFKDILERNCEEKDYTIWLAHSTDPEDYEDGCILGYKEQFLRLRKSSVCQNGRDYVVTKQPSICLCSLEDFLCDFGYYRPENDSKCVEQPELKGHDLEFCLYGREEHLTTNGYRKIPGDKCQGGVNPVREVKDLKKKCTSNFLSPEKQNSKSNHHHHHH

T4: sSortilin S316E mutant (human, UniProt Q99523 78-755)
T4 construct: those of wt sSortilin are used
T4 sequence: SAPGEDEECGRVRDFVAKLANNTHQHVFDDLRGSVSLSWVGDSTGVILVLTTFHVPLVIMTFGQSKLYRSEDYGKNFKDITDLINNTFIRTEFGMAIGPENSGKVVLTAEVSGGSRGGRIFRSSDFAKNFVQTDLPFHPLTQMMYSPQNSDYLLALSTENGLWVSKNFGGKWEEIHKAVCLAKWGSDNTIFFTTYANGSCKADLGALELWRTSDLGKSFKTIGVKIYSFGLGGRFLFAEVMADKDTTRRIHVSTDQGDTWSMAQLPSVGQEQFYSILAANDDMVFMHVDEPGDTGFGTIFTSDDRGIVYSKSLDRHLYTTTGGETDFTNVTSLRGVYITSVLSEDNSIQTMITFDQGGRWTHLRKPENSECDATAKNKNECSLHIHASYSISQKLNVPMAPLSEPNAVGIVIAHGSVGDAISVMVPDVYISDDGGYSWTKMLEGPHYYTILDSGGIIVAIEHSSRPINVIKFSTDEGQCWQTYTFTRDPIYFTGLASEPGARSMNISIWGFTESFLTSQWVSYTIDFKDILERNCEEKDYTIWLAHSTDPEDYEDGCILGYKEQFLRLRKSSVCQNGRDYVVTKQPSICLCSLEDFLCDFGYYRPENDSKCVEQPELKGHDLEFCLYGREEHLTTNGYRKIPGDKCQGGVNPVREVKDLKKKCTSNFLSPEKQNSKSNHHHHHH


How the values were obtained:
[1] = molecular target: T1, immobilized sSortilin; test: Surface plasmon resonance: inhibition of ligand binding to immobilized sSortilin by Neurotensin derived peptides; details: for inhibition of Sortilin's binding of its own propeptide (Sort-pro): GST-Sort-pro binding to immobilized sSortilin, FIG. 3A+B
Protocol: (§1) Surface plasmon resonance (SPR) measurements were performed on a BIAcore 2000 instrument (Biacore Sweden) equipped with CM5 sensor chips maintained at 20° C. A continuous flow of HBS buffer (10 mM HEPES pH 7.4, 3.4 mM EDTA, 150 mM NaCl, 0.005% surfactant P20) passing over the sensor surface was maintained at 5 μl/min. […] A sortilin solution (320 μl, 5 μg/ml in 10 mM sodium acetate pH 4.0) was then injected over flow cells 1 and 2 at a flow rate of 15 μl/min. Remaining binding sites in all three flow cells were blocked by injection (5 μl/min) of 70 μl of 1 M ethanolamine pH 8.5. […] Screening of the samples was performed by injecting aliquots of 50 μl, at concentrations of 0.1-8 μM, through all flow cells with a flow rate of 5 μl/min. Unless otherwise stated, the samples were dissolved in 10 mM HEPES pH 7.4, 150 mM NaCl, 1.5 mM CaCl2, 1 mM EGTA, 0.005% surfactant P20. Sample buffer was also used as running buffer. The BIAcore response is expressed in relative response units (RU), i.e. the difference in response between the immobilized protein flow cell and the corresponding control flow cell (activated and blocked but without protein). Regeneration of the sensor chip after each cycle of analysis was performed by injecting 20 μl of 10 mM glycine/HCl pH 4.0, 500 mM NaCl, 20 mM EDTA and 0.005% surfactant P20. For calciumfree conditions, HBS containing 20 mM EDTA was used as sample as well as running buffer.

[2] = molecular target: T2, sSortilin S316E mutant; test: Surface plasmon resonance: ligand binding to purified S316E mutant sSortilin compared with wt sSortilin; details: compared with wtSortilin, SPR
Protocol: as §1

[3] = molecular target: T3, Soluble Sortilin (sSortilin), luminal …; test: SPR (BIAcore 3000), immobilised sSortilin
Protocol: All measurements were performed on a BIAcore 3000 instrument (Biacore Sweden) maintained at 20° C. A continuous flow of buffer F (10 mM HEPES pH=7.4, 150 mM (NH₄)₂SO₄, 1.5 mM CaCl₂, 1.5 mM EGTA and 0.005% Tween-20) was passed over the CM5 chip sensor surface at 5 μl/min.

[4] = molecular target: T4, sSortilin S316E mutant; test: SPR, immobilised S316E sSortilin
Protocol: as §1, with “For calciumfree conditions, HBS containing 20 mM EDTA was used as sample as well as running buffer.” left out

Molecule | inhibition of Sortilin's binding of its own propeptide (Sort-pro) ([1]; SPR) | binding to S316E mutant sSortilin [2] | other results
Arg8-Arg-Pro-Tyr-Ile-Leu13-NH2 [reference compound] | fails to inhibit | – | –
Arg9-Pro-Tyr-Ile-Leu13 [reference compound] | equally effective | – | –
Sort-pro: Sortilin's own propeptide (amino acid residues 34-77 of SEQ ID NO. 1), used fused to GST (QDRLDAPPPPAAPLPRWSGPIGVSWGLRAAAAGGAFPRGGRWRR; also: fused to GST) | – | no binding | –
Tyr-Ile-Leu [Tyr11-Ile-Leu13] | full inhibition | – | affinity for Sortilin (summary statement) [1]: high affinity; inhibition of binding of the prodomain of NGF to sSortilin ([1]; GST-tagged propeptide of NGF, SPR, FIG. 3C): hampers binding; inhibition of binding of RAP to sSortilin ([1]; SPR, FIG. 3D): hampers binding
propeptide of Nerve Growth Factor (NGFpro), E. coli expressed, His6 tag removed by TEV (ligand, also called NGF propeptide; pro-domain of Nerve Growth Factor) EPHSESNVPAGHTIPQVHWTKLQHSLDTALRRARSAPAAAIAARVAGQTRNITVDPRLFKKRRLRSPRVLFSTQPPREAADTQDLDFEVGGAAPFNRTHRSKR | – | – | Kd [3]: ~10 nM
QDRLDAPPPPAAPLPRWSGPIGVSWGLRAAAAGGAFPRGGRWRR (other, also: fused to GST, order and linker not given here, the construct is 'as previously described (5)'; also called Sortilin propeptide fused to GST; not shown: glutathione S-transferase (GST) tag) [GST-tagged Sortilin propeptide (GST-Sort-pro)] | – | – | binding result [4]: no binding
NGFpro: propeptide of Nerve Growth Factor, amino acid residues 19 to 121 of SEQ ID NO 6 (protein, left off: a dimerising Fc or GST) EPHSESNVPAGHTIPQVHWTKLQHSLDTALRRARSAPAAAIAARVAGQTRNITVDPRLFKKRRLRSPRVLFSTQPPREAADTQDLDFEVGGAAPFNRTHRSKR | – | did bind | –
BDNF: Mature BDNF (SEQ ID NO. 7) purchased from R&D Systems (protein, listed as Homo sapiens, SIGNAL (1)..(18) Signal peptide of BDNF) MTILFLTMVISYFGCMKAAPMKEANIRGQGGLAYPGVRTHGTLESVNGPKAGSGLTSLADTFEHVIEELLDEDQKVRPNEENNKDADLYTSRVMLSSQVPLEPPLLFLLEEYKNYLDAANMSMRVRRHSDPARRGELSVCDSISEWVTAADKKTAVDMSGGTVTVLEKVPVSKGQLKQYFYETKCNPMGYTKEGCRGIDKRHWNSQCRTTQSYVRALTMDSKKRIGWRFIRIDTSCVCTLTIKRGR | – | did bind | –
